Reference: US20230331825A1
One block for each substance: values may come before it.

Columns and labels:
S1 (SARS-CoV-2) [1] = target: S1 (SARS-CoV-2) (UniProt P0DTC2); assay: protein/peptide microarray, Anti-Hu IgG control alone, replicate 1, spot S1_0.5
S1 (SARS-CoV-2) [2] = target: S1 (SARS-CoV-2) (UniProt P0DTC2); assay: protein/peptide microarray, Anti-Hu IgG control alone, replicate 2, spot S1_0.5
S1 (SARS-CoV-2) [3] = target: S1 (SARS-CoV-2) (UniProt P0DTC2); assay: protein/peptide microarray, Anti-Hu IgG control alone, replicate 1, spot S1_0.17
S1 (SARS-CoV-2) [4] = target: S1 (SARS-CoV-2) (UniProt P0DTC2); assay: protein/peptide microarray, Anti-Hu IgG control alone, replicate 2, spot S1_0.17
Human IgG (human) [5] = assay: protein/peptide microarray, Anti-Hu IgG control alone, replicate 1, spot Human IgG
Human IgG (human) [6] = assay: protein/peptide microarray, Anti-Hu IgG control alone, replicate 2, spot Human IgG
ACE2_Fc [7] = target: ACE2_Fc (UniProt Q9BYF1); assay: protein/peptide microarray, Anti-Hu IgG control alone, replicate 1, spot ACE2_Fc_0.5
ACE2_Fc [8] = target: ACE2_Fc (UniProt Q9BYF1); assay: protein/peptide microarray, Anti-Hu IgG control alone, replicate 2, spot ACE2_Fc_0.5
ACE2_Fc [9] = target: ACE2_Fc (UniProt Q9BYF1); assay: protein/peptide microarray, Anti-Hu IgG control alone, replicate 1, spot ACE2_Fc_0.17
ACE2_Fc [10] = target: ACE2_Fc (UniProt Q9BYF1); assay: protein/peptide microarray, Anti-Hu IgG control alone, replicate 2, spot ACE2_Fc_0.17
Human IgG (human) [11] = assay: protein/peptide microarray, sample [..]00761 10 ug/mL, replicate 1, positive-control spot Human IgG (signal of the anti-human IgG detection)
Human IgG (human) [12] = assay: protein/peptide microarray, sample [..]00761 10 ug/mL, replicate 2, positive-control spot Human IgG (signal of the anti-human IgG detection)
ACE2_Fc [13] = target: ACE2_Fc (UniProt Q9BYF1); assay: protein/peptide microarray, sample [..]00761 10 ug/mL, replicate 1, positive-control spot ACE2_Fc_0.5 (signal of the anti-human IgG detection)
ACE2_Fc [14] = target: ACE2_Fc (UniProt Q9BYF1); assay: protein/peptide microarray, sample [..]00761 10 ug/mL, replicate 2, positive-control spot ACE2_Fc_0.5 (signal of the anti-human IgG detection)
ACE2_Fc [15] = target: ACE2_Fc (UniProt Q9BYF1); assay: protein/peptide microarray, sample [..]00761 10 ug/mL, replicate 1, positive-control spot ACE2_Fc_0.17 (signal of the anti-human IgG detection)
ACE2_Fc [16] = target: ACE2_Fc (UniProt Q9BYF1); assay: protein/peptide microarray, sample [..]00761 10 ug/mL, replicate 2, positive-control spot ACE2_Fc_0.17 (signal of the anti-human IgG detection)
[17] = target: SARS-CoV-2 spike (S) protein (SARS-CoV-2) (UniProt P0DTC2); assay: cell-based or functional assay
[18] = target: Human IgG (microarray spot); assay: CDI SARS-CoV-2 protein microarray, sample [..]00316 1 ug/mL, positive-control spot Human IgG read by the anti-human IgG secondary, replicate 1
[19] = target: Human IgG (microarray spot); assay: CDI SARS-CoV-2 protein microarray, sample [..]00316 1 ug/mL, positive-control spot Human IgG read by the anti-human IgG secondary, replicate 2
[20] = target: Human IgG (microarray spot); assay: CDI SARS-CoV-2 protein microarray, sample [..]00347 1 ug/mL, positive-control spot Human IgG read by the anti-human IgG secondary, replicate 1
[21] = target: Human IgG (microarray spot); assay: CDI SARS-CoV-2 protein microarray, sample [..]00347 1 ug/mL, positive-control spot Human IgG read by the anti-human IgG secondary, replicate 2
[22] = target: ACE2_Fc (microarray spots) (UniProt Q9BYF1); assay: CDI SARS-CoV-2 protein microarray, sample [..]00316 1 ug/mL, positive-control spot ACE2_Fc_0.5 read by the anti-human IgG secondary, replicate 1
[23] = target: ACE2_Fc (microarray spots) (UniProt Q9BYF1); assay: CDI SARS-CoV-2 protein microarray, sample [..]00316 1 ug/mL, positive-control spot ACE2_Fc_0.5 read by the anti-human IgG secondary, replicate 2
[24] = target: ACE2_Fc (microarray spots) (UniProt Q9BYF1); assay: CDI SARS-CoV-2 protein microarray, sample [..]00347 1 ug/mL, positive-control spot ACE2_Fc_0.5 read by the anti-human IgG secondary, replicate 1
[25] = target: ACE2_Fc (microarray spots) (UniProt Q9BYF1); assay: CDI SARS-CoV-2 protein microarray, sample [..]00347 1 ug/mL, positive-control spot ACE2_Fc_0.5 read by the anti-human IgG secondary, replicate 2
[26] = target: ACE2_Fc (microarray spots) (UniProt Q9BYF1); assay: CDI SARS-CoV-2 protein microarray, sample [..]00316 1 ug/mL, positive-control spot ACE2_Fc_0.17 read by the anti-human IgG secondary, replicate 1
[27] = target: ACE2_Fc (microarray spots) (UniProt Q9BYF1); assay: CDI SARS-CoV-2 protein microarray, sample [..]00316 1 ug/mL, positive-control spot ACE2_Fc_0.17 read by the anti-human IgG secondary, replicate 2
[28] = target: ACE2_Fc (microarray spots) (UniProt Q9BYF1); assay: CDI SARS-CoV-2 protein microarray, sample [..]00347 1 ug/mL, positive-control spot ACE2_Fc_0.17 read by the anti-human IgG secondary, replicate 1
[29] = target: ACE2_Fc (microarray spots) (UniProt Q9BYF1); assay: CDI SARS-CoV-2 protein microarray, sample [..]00347 1 ug/mL, positive-control spot ACE2_Fc_0.17 read by the anti-human IgG secondary, replicate 2

F635 (S1 (SARS-CoV-2) [1]): 1560 | Z-Score (S1 (SARS-CoV-2) [1]): 0.1 | F635 (S1 (SARS-CoV-2) [2]): 1230 | Z-Score (S1 (SARS-CoV-2) [2]): 0.06 | F635 (S1 (SARS-CoV-2) [3]): 1410 | Z-Score (S1 (SARS-CoV-2) [3]): 0.08 | F635 (S1 (SARS-CoV-2) [4]): 753 | Z-Score (S1 (SARS-CoV-2) [4]): -0.01 | F635 (Human IgG (human) [5]): 65500 | Z-Score (Human IgG (human) [5]): 9.27 | F635 (Human IgG (human) [6]): 65500 | Z-Score (Human IgG (human) [6]): 9.27 | F635 (ACE2_Fc [7]): 65500 | Z-Score (ACE2_Fc [7]): 9.27 | F635 (ACE2_Fc [8]): 65500 | Z-Score (ACE2_Fc [8]): 9.27 | F635 (ACE2_Fc [9]): 65500 | Z-Score (ACE2_Fc [9]): 9.27 | F635 (ACE2_Fc [10]): 65500 | Z-Score (ACE2_Fc [10]): 9.27 | F635 (Human IgG (human) [11]): 65500 | Z-Score (Human IgG (human) [11]): 7.28 | F635 (Human IgG (human) [12]): 65500 | Z-Score (Human IgG (human) [12]): 7.67 | F635 (ACE2_Fc [13]): 65500 | Z-Score (ACE2_Fc [13]): 7.28 | F635 (ACE2_Fc [14]): 65500 | Z-Score (ACE2_Fc [14]): 7.67 | F635 (ACE2_Fc [15]): 65500 | Z-Score (ACE2_Fc [15]): 7.28 | F635 (ACE2_Fc [16]): 65500 | Z-Score (ACE2_Fc [16]): 7.67
Substance: Anti-Hu IgG (Control) (antibody)

Substance: REGN10933 (antibody)
IC50, SARS-CoV-2 pseudovirus neutralization assay [17]: 0.0841 µg/mL

F532 [18]: 212 | F635 [18]: 65500 | Z-Score [18]: 7.52 | F532 [19]: 164 | F635 [19]: 65500 | Z-Score [19]: 7.97 | F532 [20]: 197 | F635 [20]: 65500 | Z-Score [20]: 8.93 | F532 [21]: 179 | F635 [21]: 65500 | Z-Score [21]: 8.89 | F532 [22]: 234 | F635 [22]: 65500 | Z-Score [22]: 7.52 | F532 [23]: 167 | F635 [23]: 65500 | Z-Score [23]: 7.96 | F532 [24]: 219 | F635 [24]: 65500 | Z-Score [24]: 8.93 | F532 [25]: 160 | F635 [25]: 65500 | Z-Score [25]: 8.89 | F532 [26]: 198 | F635 [26]: 65500 | Z-Score [26]: 7.52 | F532 [27]: 151 | F635 [27]: 60200 | Z-Score [27]: 7.32 | F532 [28]: 192 | F635 [28]: 65500 | Z-Score [28]: 8.93 | F532 [29]: 138 | F635 [29]: 65500 | Z-Score [29]: 8.89
Substance: secondary antibody (Anti-Human IgG)
